B1: E3 ubiquitin-protein ligase RLIM (Mus musculus), Q9WTV7 (parent)
chain: MENSDSNDKGSDQSAAQRRSQMDRLDREEAFYQFVNNLSEEDYRLMRDNNLLGTPGESTEEELLRRLQQIKEGPPPQSPDENRAGESSDDVTNSDSIIDWLNSVRQTGNTTRSGQRGNQSWRAVSRTNPNSGDFRFSLEINVNRNNGSQTSENESEPSTRRLSVENMESSSQRQMENSASESASARPSRAERNSAEAVTEVPTTRAQRRARSRSPEHRRTRARAERSRSPLQPTSEIPRRAPTLEQSSENEPEGSSRTRHHVTLRQQISGPELLGRGLFAASGSRNPSQGTSSSDTGSNSESSGSGQRPPTIVLDLQVRRVRPGEYRQRDSIASRTRSRSQAPNNTVTYESERGGFRRTFSRSERAGVRTYVSTIRIPIRRILNTGLSETTSVAIQTMLRQIMTGFGELSYFMYSDSDSEPSASVSSRNVERVESRNGRGSSGGGNSSGSSSSSSPSPSSSGESSESSSEMFEGSSEGGSSGPSRRDGRHRAPVTFDESGSLPFLSLAQFFLLNEDDEDQPRGLTKEQIDNLAMRSFGENDALKTCSVCITEYTEGNKLRKLPCSHEYHVHCIDRWLSENSTCPICRRAVLSSGNRESVV

These results are taken from IntAct's records for PubMed 22596162.

In this experiment the parent is B1. The note with it: with zfp42_mouse Zfp42, P22227.
Chain of zfp42_mouse Zfp42, P22227 (P22227 whole entry): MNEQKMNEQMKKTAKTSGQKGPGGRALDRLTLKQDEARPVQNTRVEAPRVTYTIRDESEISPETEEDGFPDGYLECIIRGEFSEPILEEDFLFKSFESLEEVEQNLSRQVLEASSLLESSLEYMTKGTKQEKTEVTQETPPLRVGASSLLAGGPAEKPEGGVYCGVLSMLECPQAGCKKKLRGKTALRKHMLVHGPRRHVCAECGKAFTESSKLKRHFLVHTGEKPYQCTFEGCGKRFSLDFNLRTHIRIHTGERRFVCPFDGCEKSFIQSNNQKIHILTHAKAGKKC
With MENSDSNDKGSDQSAAQRRSQMDRLDREEAFYQFVNNLSEEDYRLMRDNNLLGTPGESTEEELLRRLQQIKEGPPPQSPDENRAGESSDDVTNSDSIIDWLNSVRQTGNTTRSGQRGNQSWRAVSRTNPNSGDFRFSLEINVNRNNGSQTSENESEPSTRRLSVENMESSSQRQMENSASESASARPSRAERNSAEAVTEVPTTRAQRRARSRSPEHRRTRARAERSRSPLQPTSEIPRRAPTLEQSSENEPEGSSRTRHHVTLRQQISGPELLGRGLFAASGSRNPSQGTSSSDTGSNSESSGSGQRPPTIVLDLQVRRVRPGEYRQRDSIASRTRSRSQAPNNTVTYESERGGFRRTFSRSERAGVRTYVSTIRIPIRRILNTGLSETTSVAIQTMLRQIMTGFGELSYFMYSDSDSEPSASVSSRNVERVESRNGRGSSGGGNSSGSSSSSSPSPSSSGESSESSSEMFEGSSEGGSSGPSRRDGRHRAPVTFDESGSLPFLSLAQFFLLNEDDEDQPRGLTKEQIDNLAMRSFGENDALKTCSVCITEYTEGNKLRKLPCSHEYAVHAIDRWLSENSTCPICRRAVLSSGNRESVV [H569A;C572A], the “effect of a mutation on the interaction” value is “with no effect”.
